According to patent publication US10155985B2, “Evaluation of eosinophilic esophagitis” (CHILDREN'S HOSPITAL MEDICAL CENTER, priority 2004, dated 2018):

B1: SEQ_ID_#165 (nucleic acid, listed as Homo sapiens)
DNA: CCAAAAAGTCAGTTGATATGACACAGTCACAGACAGAACAGTCAGCAGCCCAAGAAAGGTCCTCACGGCTGCTGTGCTGGGTAGCACTTGCCATCCAGTTTCTAGAGTGATGAAATGCTCTGTCTGTACCGTTCAATACAGTAGGCACTGGCACTAGCCACATGTGCCAGCTAAGCACTTGAAATGTGGCCAGTGCAATAAGGAATTGAACTTTTAATTGCATTTAATAAACTGTATGTAAATAG
B2: SEQ_ID_#142 (nucleic acid, listed as Homo sapiens)
DNA: TAGAGGTTAAATGACCCCATTTGTGGGGTGGTTTATTGTTAAAATGATTAAACATGCTAAAATCACATGGAGTGGCTATTCCACTTTTGCCCTGACTCCATAGTGGGGCAAATGGGAACTACAGGAGTCACTTGGTTTGTGTGGCCTCTGGGGATGGTTAGACTTGGAGGGTTAGCGGTGAGCAGGTTAGCAAAGCCCCAAGCATCCTTCATGTAGTACACTTTTCCCAGCAGTAAAAAAATTCAGAGATTTCCCCCTTCTTCACTTTTCTTTCCTCCCTATATGTGCCCTACTTCTCATTCTCCTATGGCCCTGGAACCTCTTATGCTTCTGCCCGTTATGGTCTTAGACTAGATGATGAGGGAGGCTTTTCCTTGACACCAGCATTCCAGTCT
B3: SEQ_ID_#116 (nucleic acid, listed as Homo sapiens)
DNA: TGTAAGTATTTACTTTTAATTCTACTTTCAGGTGGAAAATGATGAGAACTCCTTAGGGGGTCTTTAATCTCAAGATTGTCAGTCTAGCTAAATATAATTAAAAGACTGCCTTCTGTGTTTACTGCTGAATAATGATGAGAAAAAATAGTGTAATTTTTTTAATGTTTGCTAACCAGGTTCTCCATAGACAACTTTAGTCAGTGGTCATAATATTGTAGATTTAGCTGCAAATTTAAGAGGTGAGAAAAGGAATATGTTTGTTCCTAGGTTTGTTCTAATCAGACCAATTCAAAGTTAATATTGCAAGGCTATACAACATCTATCTCATCCAAATTGTTGTTTTATAGCTTTCAAACATCCTTTTTAACTTCTCTGCTCTGCCACTCATCATTCCATTAGGGCAAAAAGAAACAAAACTTAAGCTTTGAAGCTCATTAGATACATACTTTAAAAAATAGATCAAAATAAGCAAAAAGTACAATTTGTATTATCTGCATGAGTTTCTAGTTATCAGTGACCTAAGCTAAGTCTGGCTTTTAGTAGCAAGATTTTAGCATACCAGGCTCTCAAGGGAGGTATTTCTCAGTATTATTTCAATTTTTAAAGGATAAAGACATGTTCTAATTTAAATTTATTGAAATTTGATAATCCATGTGACTTTTCAGTACTGTGCTTGGTGCTTTAGATGGAAATAGGATAAATATCTGACTCAATCATCCAGGAGTCATGATACATACTTTACAATCTGATTTA
B4: SEQ_ID_#52 (nucleic acid, listed as Homo sapiens)
DNA: TTTTTTTCCAAGGGGAGAATGAAGCCATTTTATTTAGGGGAATGTTAAAACAAAGCCATATACAATCTGTAACAAATACAATACAATTGTTTGTTCCCTAGTCCTGAATAATTACAGTATATACAAAATCTGTAAGGCACTGGTTCCCCCAAAAGAACAAATGAGTCTTCTTGTGAAACAGACAACGAAACCCCTATATTGCCAACTTTTCTCCAAAAAATATGGCATTGTTTTTTTGTTTTGTTTTACAAGAGGAATCACAATTGCTAAATTAAGTCACTTCTGATGCCATTTCTTTCATTTCCACTGCTATGTGTCTGGGTTTTCTAAGGCAATGTAACTACTGAACATGTTCAAGTTTAAAAAACTATACTTCTCTCAGTGCCGTTCCACCCACAAACAAAGAAGAATCAGATCA
B5: SEQ_ID_#245 (nucleic acid, listed as Homo sapiens)
DNA: TTTTTTTTTTGTATTTTTTGCAGGGACAGGGTTTCACCATATTGCTCAGGGTAGTCTCGAACTCCTGAGCTCAAGGGATCCACCCTGCCTTGGCCTCCCAGTGTGCTGGGATTTCACACGTGAGCCACCGAGCCCAGCTACATTCTTATTTCCTAAACTTTACAAGTTCACACTCTTCCCTTTAAACAAATGTGCCCCCTCTGGCGGTGTCATTTGAGTCCCGGTGTATGTCATTAAGCCTCTTAACCTCAACCACTACTTCCCACTGAAATAACTCTATTTTCTTTTTTTCTAATGAAAAAGTAAGACATGTTCTATGTAAAAATTAAAATATGGTGAGCACTTACCACTTACTATGAGCCAGGCATTGAACTAAGTATTTTTTAATCTTATTTTCATCCTCGTGATATGAGGTCAGTGCTTTGATGAGTTCCATTTTACGTAAGAAAGTAGTTAAG
B6: SEQ_ID_#43 (nucleic acid, listed as Homo sapiens)
DNA: TTCACTTTTTCATTATTTTATTGTTGTTTTAGTAGCATTTTGAGGTGAATGTATGCATAATCAGTGAATTAGACAAGCATGCACATACATGATATCTGATCAAACATTTTTTTGTCTCTCATCATCCTCATAAAATTTATTCAGTGGGAGAAGCTTTTTCTTCCATCAGATACATTCCAGTTGTATGCCAACATACTCAGGTAAGAGCAACATTTTGGTCATTTTAAATAGTTTGGTAATTATGACTCCCAGTCGCCTACAATAAGAAGAAACTACAATAATTTAGTACTAAATTTTTCTTCCCTCTCCAACTGAGTCTTGTGTTGAGTTGCCTACTTGCGCTAGCACATCTTCCCTTGCTGGTTGACATTTTTGCTAAGATTTCTCCCTCTCCTTCCACCCCACCTTGGACACGGAGGTTTCTGGCCTCCCTTTCCCCAAGGTCCCCAAAAAAAGAAATCTGTCTTATGAGATAGGGCTGCCTTCACATGGTGTCAGGGTTCTCTGGATAGTAATTGTGTGTAATAAGAGAGGGAGCATTCAAGAACTCCCATAGAAATTCTCATAGCCCTGACTTCTCATCTTTAGCTTGTGTAGATTTTTTTGTATTCCAGGTGGTCATTTGTGACTCCTTCCTCATCCCACAATCTGGCTTCACCTCCCACTTCTTGATGCTGGGTTCCCTCCACCTCTTTGGACAACCTATCAGAGAGGACCTAAAGAGCCCATGCTGACTTCACTCTTGCATGTCTCACTATGGTTCATGGGAAACCACACATCCATTGCCCTGACAACACTAGACATACAGGC
B7: SEQ_ID_#185 (nucleic acid, listed as Homo sapiens)
DNA: AATAATTAATGCAATTTAATGACAATAAATAAACTTCAAAGTCCCGCCAAAACCAGCAGAACCTCATCAAAGCAAAAGAAACAAGCTTCTTTCCAGCTCAGAGGTGAAGCGCTGCAGATGGCCAGTGTTTCATCTCGAGGGGAGGGTTGGGAAAGGCTGTGGAATGAGGG
B8: SEQ_ID_#19 (nucleic acid, listed as Homo sapiens)
DNA: ATGGCCTGGACCCCTCTGCTCCTCATGTTCCTCTCTCATTGCTCAGGTGAGAACTGGTTTTAGGTGTCTAGGGTTAGCTCCTTAGCTTGCGTCAGCCTCTCTGGCTCAGATCCCCAAGACATGTATCTCTAGTTCCTGCCCCAGCCCCCATGAGTGTCTGTGCTTGCAGGTTCCCTCTCCCAGCCTGTGCTGACTCAGATGACCTCACTCTCTGCATCTCCGGGAGCATGAGCCAGACTTACCTGCACCCTGAGCAGTGGCTTCAGAGTTGGTAACTTTGCAATATAGTGGTCAGCTGAAGCCAGGCAGCCGTCCCAGGTGTCTCCTGAGATACTACTCAGACTCAAATATCACTCAGCACCCTGGGGTTCCCATCCACTTCTCTGGATCCAATGATACATTAGCCAATGCAGGGATTCTGTACATTCCTGGGCTGAAGCCTGAGGGTGAGGCTATTACTGTTGTACGTGTCACAGCAGCTCCAAGT
B9: SEQ_ID_#243 (nucleic acid, listed as Homo sapiens)
DNA: GGAAAGAGAGGAGAGGGGAGGGGAAGAGAGGGGAGGGAAGGGCAGGGCAGGGCAGAGCCCGGCAGGCAGCCCTCAGAGGAGGGGCGCAGGCCCCAGCCCAAGGCCTCCCGCGCCTGCCCAGGTCCCGGCCTCCATCGTCCAGGGCTCTGGGGCTCCCAGGGGAGACACCCACGCTCGGCCAAGCCCAGGGTTCCAGAAGCCCAGGGGTGGCGGCAGCCGGGCTCAGCCTATGGCCAGGCTCGCATTCAGACATGCGCCAGCCTCGGTCGGCTCTCTCCGGGAGACACTAAGATCTCCTCACTGACTTTGGTGTTCCTTGGTCTCACCAGCGCGTCCTAGCTGTGCCGAGCTCACACCCACCCTGTTTGGTGTAAGCCACAGGTCCACAACGTTCATCAGCTCTGGAAATCCCTCAACAATTGTGTCCAGTTTCACCACGAATTCCTTCTCCATATCCTCACCATTTTCTTTTACCCCCTCATCAAATTACTCCCTTCCGTCTAATCTGCTGATTAACTCATTCATTTTATCTTAAATTATTATG
B10: SEQ_ID_#186 (nucleic acid, listed as Homo sapiens)
DNA: CACCGGCTACAAGGCTAGACCGGGGGCTCGCATATCTCCACTTGCAGCTGCCACTGCCATTAGAAGAACTTGCTCAGCCAGCTCCTGGGCCCCAGGAAAAGGACAAGTGTCACCCAGAACAGAGCCACCTCCAGCTGCACTCAGCTCCAGAAGCTGGCCCAGCCGGTCCAGTACACCTTTTAAATAATGTCCTCTACGTGCCGGTGTGGAAGTAGCCCGGATGCAATTGAATGAACAACAGACGGTGCTTTCCAGGACGGCGCTGTGCTTTCCAGGATGGTGCTGTGCTTTCATTCATTTGGGTAGCTCCTCTGTGAGCCTCCCAGCGCCGACTGCAGAGCCCCCACTCTCCAGCCTGCAAGACCCCGAAATTCAAGCCACACAAAGAAAGGAGGAGGGGGCCGTGGCATTTACTGAACCTTATAAAACTGTCAGCAAAACAGCCCTTAGGCTTGGACTCCCTGCTAGCCGGGTTTTACGGTGCTGAAGTCAGCATCTTGATTCAGCTGCATAAATAATCTCCTGCAGTCCTGCAAGGCCTGGGGTAGGAGAGGGTATGGGGACCAGGGCACTCTGTAAGGGCTGGATAGGAACCCCAGGGAATAAGACAGACCAATGCGGGACTTCAGACTCCACTGCAGCGGGATCGGG

The molecules below were run on EE transcriptome (assay: Genome-wide microarray transcript profiling of esophageal biopsies, EE patients vs normal individuals (EE transcriptome)). Conditions: transcript level in esophageal biopsies of EE patients (n=76) compared to normal individuals (n=13); Affymetrix Human Genome U133 plus 2; p<0.01.
Method in brief: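 Distal esophageal biopsies from EE patients (n=76; >24 eosinophils/hpf, basal hyperplasia) and normal controls (n=13; 0 eosinophils/hpf) profiled on Affymetrix Human Genome U133 plus 2 chips. Expression by absolute call and average difference, global scaling; transcriptome genes defined as p<0.01 (Welch t-test) and ≥1.5-fold change.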

Row | Molecule | Fold Change
1 | B1 | 2.732
2 | B2 | 2.896
3 | B3 | 3.363
4 | B4 | 5.183
5 | B5 | 2.303
6 | B6 | 5.944
7 | B7 | 2.62
8 | B8 | 10.29
9 | B9 | 2.308
10 | B10 | 2.617
